Biological target: Rac1BD (MiniBAR70-208), recombinant (human) (UniProt O15063)
Assay: SEC-MALS

Rac1Q61L, recombinant (from UniProt P63000 1-192) (natural protein)
stoichiometry N (Rac1 per Rac1BD homodimer): 2
